System: cultured proximal and distal airway epithelium
Experiment: IL-13-induced mucous metaplasia (goblet cell differentiation) in cultured proximal and distal airway epithelium (ALI)
Assay type: cell-based, mouse
Conditions: rIL-13 25 ng/mL vs control; epithelia from proximal vs distal trachea, Foxj1-GFP mice n=6; p<0.001
Experimental: Transwell cultures. Cells were cultured and expanded in complete SAGM (small airway epithelial cell growth medium; Lonza, CC-3118) containing TGF-β/BMP4/WNT antagonist cocktails and 5 μM Rock inhibitor Y-27632 (Selleckbio, S1049). To initiate air-liquid interface (ALI) cultures, airway basal stem cells were dissociated from mouse tracheas and seeded onto transwell membranes. After reaching confluence, media was removed from the upper chamber. Mucociliary differentiation was performed with PneumaCult-ALI Medium (StemCell, 05001). Differentiation of airway basal stem cells on an air-liquid interface was followed by directly visualizing beating cilia in real time after 10-14 days. […]
Statistical analysis of proximodistal mucous metaplasia. For the analysis in FIG. 18H,I, the extent of goblet cell hyperplasia was assessed using counts of Muc5ac^+ goblet cells, normalized to counts of GFP^+ ciliated cells. To quantify differences in the count values between the samples in different conditions (n=6, Foxj1-GFP mice), Applicants fit a negative binomial regression using the ‘glm.nb’ function from the ‘MASS’ package in R. Pairwise comparisons between means for each condition were computed using post hoc tests and p-values were adjusted for multiple comparisons using Tukey's HSD, implemented using the function ‘pairs’ from the ‘emeans’ package in R.

B1: rIL-13: recombinant murine IL-13 (Peprotech) used to induce mucous metaplasia (protein, UniProt P20109 19-131, looked up)
Interleukin-13: APGPVPRSVSLPLTLKELIEELSNITQDQTPLCNGSMVWSVDLAAGGFCVALDSLTNISNCNAIYRTQRILHGLCNRKAPTTVSSLPDTKIEVAHFITKLLSYTKQLFRHGPF
induction of goblet cell differentiation (Muc5ac+ goblet cells / GFP+ ciliated cells): much higher induction of goblet cell differentiation in the distal epithelium

— patent publication US12331319B2, “Respiratory and sweat gland ionocytes” (The Broad Institute, Inc., priority 2017, dated 2025)
